The results in this text go back to patent US11278600B2, “Human alpha-galactosidase variants” (Codexis, Inc., priority 2014, dated 2022).

Where a chain is given by its changes, count along the chain named.

First the molecules themselves.
B1: 523 (protein)
chain: LDNGLARTPTMGWLHWERFMCNLDCQEEPDSCISEKLFMEMAERMVSEGWKDAGYEYLCIDDCWMAPQRDSEGRLQADPQRFPHGIRQLAMHVHSKGLKLGIYADVGNKTCAGFPGSFGYYDIDAQTFADWGVDLLKFDGCYCDSLENLADGYKHMSLALNRTGRSIVYSCEWPLYMWPFQKPNYTEIRQYCNHWRNFADIDDSWASIKSILDWTSRNQERIVDVAGPGGWNDPDMLVIGNFGLSWDQQVTQMALWAIMAAPLFMSNDLRHISPQAKALLQDKDVIAINQDPLGKQGYQLRKGDNFEVWERPLSGDAWAVAIINRQEIGGPRSYTIPVASLGKGVACNPACFITQLLPVKRQLGFYNWTSRLKSHINPTGTVLLQLENTMQMSLKDLL
modifications: Synthetic Polypeptide sequence of Variant No. 523 of mature Human GLA
B2: 524 (protein)
chain: B1 chain with M91V
modifications: Synthetic Polypeptide sequence of Variant No. 524 of mature Human GLA
B3: 536 (protein)
chain: B1 chain with M91N, K182V
modifications: Synthetic Polypeptide sequence of Variant No. 536 of mature Human GLA
B4: 527 (protein)
chain: B1 chain with M91N, H92E
modifications: Synthetic Polypeptide sequence of Variant No. 527 of mature Human GLA
B5: 535 (protein)
chain: B1 chain with M91N, K182T
modifications: Synthetic Polypeptide sequence of Variant No. 535 of mature Human GLA
B6: 530 (protein)
chain: B1 chain with M91N, K182E
modifications: Synthetic Polypeptide sequence of Variant No. 530 of mature Human GLA
B7: 531 (protein)
chain: B1 chain with M91N, K182H
modifications: Synthetic Polypeptide sequence of Variant No. 531 of mature Human GLA
B8: 525 (protein)
chain: B1 chain with Q76H, M91N, W368A
modifications: Synthetic Polypeptide sequence of Variant No. 525 of mature Human GLA
B9: 534 (protein)
chain: B1 chain with M91N, K182R
modifications: Synthetic Polypeptide sequence of Variant No. 534 of mature Human GLA
B10: 526 (protein)
chain: B1 chain with R74H, M91N
modifications: Synthetic Polypeptide sequence of Variant No. 526 of mature Human GLA
B11: 537 (protein)
chain: B1 chain with M91N, K182Y
modifications: Synthetic Polypeptide sequence of Variant No. 537 of mature Human GLA
B12: 532 (protein)
chain: B1 chain with M91N, K182M
modifications: Synthetic Polypeptide sequence of Variant No. 532 of mature Human GLA
B13: 533 (protein)
chain: B1 chain with M91N, K182Q
modifications: Synthetic Polypeptide sequence of Variant No. 533 of mature Human GLA
B14: 528 (protein)
chain: B1 chain with M91N, D130Q
modifications: Synthetic Polypeptide sequence of Variant No. 528 of mature Human GLA
B15: 529 (protein)
chain: B1 chain with M91N, K182A
modifications: Synthetic Polypeptide sequence of Variant No. 529 of mature Human GLA

The first series is described as follows: HTP-analysis of supernatants pretreated with base (MUGal hydrolysis). Format: biochemical. Conditions: activity of the variant/activity of Rd3BB (SEQ ID NO: 13); challenge at pH 9.7. The method in brief: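 GLA variants secreted from yeast INVSc1; culture supernatants pre-incubated with McIlvaine buffer pH 7.0–8.2 or 200 mM bicarbonate pH 9.1–9.7 at 37° C. for 1–18 h. Residual activity: MUGal (4 mM stock) hydrolysis at pH 4.3–4.8, 37° C., 30–180 min, carbonate quench; fluorescence Ex 355/Em 448 nm.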
As to B1, the “Relative Activity of GLA Variants After Challenge at pH 9.7” value (“Relative Activity … at pH 9.7” for short) is on record as “+ (+ = 1.5 to 5 relative activity over Rd3BB (SEQ ID NO: 13))”.

For B2, the “Relative Activity … at pH 9.7” value was “+ (+ = 1.5 to 5 relative activity over Rd3BB (SEQ ID NO: 13))”.

As for B3, the “Relative Activity … at pH 9.7” value was “++ (++ = >5 to 10 relative activity over Rd3BB (SEQ ID NO: 13))”.

Regarding B4, the “Relative Activity … at pH 9.7” value is “++ (++ = >5 to 10 relative activity over Rd3BB (SEQ ID NO: 13))”.

In the case of B5, the “Relative Activity … at pH 9.7” value was “++ (++ = >5 to 10 relative activity over Rd3BB (SEQ ID NO: 13))”.

Consider B6, for which the “Relative Activity … at pH 9.7” value is “++ (++ = >5 to 10 relative activity over Rd3BB (SEQ ID NO: 13))”.

Take B7: the “Relative Activity … at pH 9.7” value is recorded as “++ (++ = >5 to 10 relative activity over Rd3BB (SEQ ID NO: 13))”.

In the case of B8, the “Relative Activity … at pH 9.7” value is “++ (++ = >5 to 10 relative activity over Rd3BB (SEQ ID NO: 13))”.

In the case of B9, the “Relative Activity … at pH 9.7” value is “++ (++ = >5 to 10 relative activity over Rd3BB (SEQ ID NO: 13))”.

Turning to B10, the “Relative Activity … at pH 9.7” value is listed as “++ (++ = >5 to 10 relative activity over Rd3BB (SEQ ID NO: 13))”.

B11: the “Relative Activity … at pH 9.7” value is reported as “++ (++ = >5 to 10 relative activity over Rd3BB (SEQ ID NO: 13))”.

B12: the “Relative Activity … at pH 9.7” value is recorded as “++ (++ = >5 to 10 relative activity over Rd3BB (SEQ ID NO: 13))”.

With B13, the “Relative Activity … at pH 9.7” value is reported as “++ (++ = >5 to 10 relative activity over Rd3BB (SEQ ID NO: 13))”.

Turning to B14, the “Relative Activity … at pH 9.7” value was “++ (++ = >5 to 10 relative activity over Rd3BB (SEQ ID NO: 13))”.

For the molecule B15, the “Relative Activity … at pH 9.7” value is “++ (++ = >5 to 10 relative activity over Rd3BB (SEQ ID NO: 13))”.

Another series can be described thus: HTP-analysis of yeast culture supernatants, no challenge (MUGal hydrolysis). Format: biochemical. Conditions: activity of the variant/activity of Rd3BB (SEQ ID NO: 13). The method in brief:
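Activity read as 4-methylumbelliferyl α-D-galactopyranoside hydrolysis: fluorescence (355/448 nm) after sodium carbonate stop, following 30-180 min at 37° C with 2 mM MUGal stock at pH 4.6–4.8. Enzyme source is unchallenged culture supernatant of INVSc1 yeast expressing GLA variants, grown 66-84 h at 30° C.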
In the case of B1, the “Relative Activity of GLA Variants After No Challenge (NC)” value was “+ (+ = 1.5 to 5 relative activity over Rd3BB (SEQ ID NO: 13))”.

For the molecule B2, the “Relative Activity of GLA Variants After No Challenge (NC)” value was “− (− = <1.5 relative activity to Rd3BB (SEQ ID NO: 13))”.

Consider B3, for which the “Relative Activity of GLA Variants After No Challenge (NC)” value is listed as “+ (+ = 1.5 to 5 relative activity over Rd3BB (SEQ ID NO: 13))”.

For B4, the “Relative Activity of GLA Variants After No Challenge (NC)” value was “+ (+ = 1.5 to 5 relative activity over Rd3BB (SEQ ID NO: 13))”.

With B5, the “Relative Activity of GLA Variants After No Challenge (NC)” value is on record as “+ (+ = 1.5 to 5 relative activity over Rd3BB (SEQ ID NO: 13))”.

As for B6, the “Relative Activity of GLA Variants After No Challenge (NC)” value was “+ (+ = 1.5 to 5 relative activity over Rd3BB (SEQ ID NO: 13))”.

Take B7: the “Relative Activity of GLA Variants After No Challenge (NC)” value is reported as “+ (+ = 1.5 to 5 relative activity over Rd3BB (SEQ ID NO: 13))”.

On to B8, for which the “Relative Activity of GLA Variants After No Challenge (NC)” value is given as “+ (+ = 1.5 to 5 relative activity over Rd3BB (SEQ ID NO: 13))”.

Consider B9, for which the “Relative Activity of GLA Variants After No Challenge (NC)” value is “+ (+ = 1.5 to 5 relative activity over Rd3BB (SEQ ID NO: 13))”.

Regarding B10, the “Relative Activity of GLA Variants After No Challenge (NC)” value is “+ (+ = 1.5 to 5 relative activity over Rd3BB (SEQ ID NO: 13))”.

On to B11, for which the “Relative Activity of GLA Variants After No Challenge (NC)” value is listed as “+ (+ = 1.5 to 5 relative activity over Rd3BB (SEQ ID NO: 13))”.

With B12, the “Relative Activity of GLA Variants After No Challenge (NC)” value was “+ (+ = 1.5 to 5 relative activity over Rd3BB (SEQ ID NO: 13))”.

As for B13, the “Relative Activity of GLA Variants After No Challenge (NC)” value is “+ (+ = 1.5 to 5 relative activity over Rd3BB (SEQ ID NO: 13))”.

With B14, the “Relative Activity of GLA Variants After No Challenge (NC)” value was “+ (+ = 1.5 to 5 relative activity over Rd3BB (SEQ ID NO: 13))”.

B15: the “Relative Activity of GLA Variants After No Challenge (NC)” value is recorded as “+ (+ = 1.5 to 5 relative activity over Rd3BB (SEQ ID NO: 13))”.

The nature of the next series: HTP-analysis of supernatants pretreated with acid (MUGal hydrolysis). Conditions: activity of the variant/activity of Rd3BB (SEQ ID NO: 13); challenge at pH 3.7. It is filed as biochemical. The method in brief: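 MUGal hydrolysis was tracked by fluorescence (Ex 355 nm, Em 448 nm) after a 30-180 min reaction at 37° C. in pH 4.8 McIlvaine/citrate buffer, stopped with 1 M sodium carbonate. Beforehand, yeast (INVSc1) culture supernatants carrying GLA variants were held 1-3 h at 37° C. in acidic McIlvaine buffer, pH 3.3-4.3.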
Consider B1, for which the “Relative Activity of GLA Variants After Challenge at pH 3.7” value (from here on “Relative Activity … at pH 3.7”) was “+ (+ = 1.5 to 5 relative activity over Rd3BB (SEQ ID NO: 13))”.

For the molecule B2, the “Relative Activity … at pH 3.7” value was “+ (+ = 1.5 to 5 relative activity over Rd3BB (SEQ ID NO: 13))”.

Consider B3, for which the “Relative Activity … at pH 3.7” value is “+ (+ = 1.5 to 5 relative activity over Rd3BB (SEQ ID NO: 13))”.

Consider B4, for which the “Relative Activity … at pH 3.7” value was “+ (+ = 1.5 to 5 relative activity over Rd3BB (SEQ ID NO: 13))”.

Regarding B5, the “Relative Activity … at pH 3.7” value is on record as “+ (+ = 1.5 to 5 relative activity over Rd3BB (SEQ ID NO: 13))”.

Turning to B6, the “Relative Activity … at pH 3.7” value is recorded as “+ (+ = 1.5 to 5 relative activity over Rd3BB (SEQ ID NO: 13))”.

Turning to B7, the “Relative Activity … at pH 3.7” value is given as “+ (+ = 1.5 to 5 relative activity over Rd3BB (SEQ ID NO: 13))”.

As to B8, the “Relative Activity … at pH 3.7” value is “++ (++ = >5 to 10 relative activity over Rd3BB (SEQ ID NO: 13))”.

Take B9: the “Relative Activity … at pH 3.7” value was “+ (+ = 1.5 to 5 relative activity over Rd3BB (SEQ ID NO: 13))”.

Take B10: the “Relative Activity … at pH 3.7” value was “+ (+ = 1.5 to 5 relative activity over Rd3BB (SEQ ID NO: 13))”.

As to B11, the “Relative Activity … at pH 3.7” value was “+ (+ = 1.5 to 5 relative activity over Rd3BB (SEQ ID NO: 13))”.

As for B12, the “Relative Activity … at pH 3.7” value is given as “+ (+ = 1.5 to 5 relative activity over Rd3BB (SEQ ID NO: 13))”.

In the case of B13, the “Relative Activity … at pH 3.7” value is recorded as “+ (+ = 1.5 to 5 relative activity over Rd3BB (SEQ ID NO: 13))”.

On to B14, for which the “Relative Activity … at pH 3.7” value is listed as “+ (+ = 1.5 to 5 relative activity over Rd3BB (SEQ ID NO: 13))”.

On to B15, for which the “Relative Activity … at pH 3.7” value was “+ (+ = 1.5 to 5 relative activity over Rd3BB (SEQ ID NO: 13))”.
